Reference: article PMC5084153, “Structural studies on MRG701 chromodomain reveal a novel dimerization interface of MRG proteins in green plants” (Protein & Cell, 2016)
Substitutions are numbered along the chain they refer to. Several values for one entry are separate records, joined by “and”; a condition that tells them apart may be missing. Equal entries are not always repeated. Primed or numbered codes have the meaning given here. No end group written: not given here. Me3″ = trimethyl (trimethyl-lysine)

T1: MRG1 chromodomain (MRG1^CD, residues 28-110) (Arabidopsis thaliana, UniProt Q94C32 28-110)
T1 chain: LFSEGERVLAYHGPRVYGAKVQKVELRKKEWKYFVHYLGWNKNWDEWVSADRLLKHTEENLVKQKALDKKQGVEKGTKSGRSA

T2: MRG2 chromodomain (MRG2^CD) (Arabidopsis, UniProt Q4V3E2 51-123)
T2 chain: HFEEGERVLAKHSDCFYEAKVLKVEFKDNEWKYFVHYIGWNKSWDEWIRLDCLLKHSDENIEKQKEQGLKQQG

T3: MRG2 chromodomain mutant E75A (MRG2^CDE75A) (Arabidopsis, UniProt Q4V3E2 51-123, E75A)
T3 sequence: T2 chain with E25A

T4: MRG1 chromodomain mutant W58A (MRG1^CDW58A) (Arabidopsis thaliana, UniProt Q94C32 28-110, W58A)
T4 sequence: T1 chain with W31A

T5: MRG1 chromodomain mutant W58A (MRG1^CDW58A) (Arabidopsis thaliana, UniProt Q94C32 28-110, W58A)
T5 construct: MRG1 of Arabidopsis thaliana, chromodomain, residues 28-110, point mutant W58A; source: E. coli BL21 (DE3), purified (Ni HiTrap, tag removed by ULP enzyme, Superdex G75)
T5 sequence (looked up): T1 chain with W31A

B1: histone H3K4me3 peptide (residues 1-9) (peptide, UniProt P68431 2-10, looked up)
peptide: ARTK(Me3″)QTARK
notes: histone H3, residues 1-9, trimethylated at lysine 4
B2: MRG1 chromodomain (MRG1^CD, residues 28-110) (domain or fragment, Arabidopsis thaliana, UniProt Q94C32 28-110, looked up)
chain: T1 chain
notes: MRG1 of Arabidopsis thaliana, chromodomain, residues 28-110; Homodimer by SEC-MALS; also called wild-type MRG1^CD; source: E. coli BL21 (DE3), purified (Ni HiTrap, tag removed by ULP enzyme, Superdex G75)
B3: MRG2 chromodomain (MRG2^CD) (domain or fragment, Arabidopsis)
chain: T2 chain
notes: MRG2 of Arabidopsis, chromodomain; Homodimer by SEC-MALS; also called wild-type MRG2^CD; source: purified
B4: MRG1^CD: MRG1 chromodomain (residues 28–110), Arabidopsis thaliana (protein)
chain: T1 chain
modifications: left off: SMT3 (from the modified vector pET28-SMT3), end not stated, cleaved
notes: MRG1 chromodomain (residues 28–110), Arabidopsis thaliana
B5: MRG1^CDW58A: point mutant of MRG1 chromodomain disrupting π-π stacking (protein)
chain: T1 chain with W31A
modifications: left off: SMT3 (from the modified vector pET28-SMT3), end not stated, cleaved
notes: point mutant of MRG1 chromodomain disrupting π-π stacking
B6: MRG2^CDE75A: point mutant of MRG2 chromodomain disrupting hydrogen bonding and electrostatic interactions (protein)
chain: T2 chain with E25A

Experiments:
[1] = biological target: MRG701 chromodomain (MRG701^CD, residues 27-96) (Oryza sativa); assay: SEC-MALS; Wyatt 015S5 (150 Å) column, 0.5 mL/min, 10 mmol/L Tris 8.0, 100 mmol/L NaCl; self-association of the chromodomain
[2] = biological target: MRG701 chromodomain (MRG701^CD, residues 27-96) (Oryza sativa); assay: ITC; MicroCal iTC200, 20°C, 20 mmol/L Tris pH 8.0, 100 mmol/L NaCl; protein 0.1-0.2 mmol/L in the cell, peptide 1-2 mmol/L in the syringe; one-site model
[3] = biological target: MRG701 chromodomain mutant W56A (MRG701^CDW56A) (Oryza sativa); assay: as above
MRG1^CDW58A = biological target: T6, MRG1^CDW58A (Arabidopsis thaliana, UniProt Q94C32, W58A); type: binding
T6 construct: Arabidopsis thaliana MRG1 (residues 28–110); His-SMT3 (SUMO) from modified pET28-SMT3 (N, cleaved yes); made in house; host or cells: Escherichia coli BL21 (DE3)
Experimental: The cDNA encoding the chromodomain of Arabidopsis thaliana MRG1 (residues 28–110) and Oryza sativa MRG701 (residues 27–96) were amplified by PCR and cloned into the modified pET28-SMT3 vector. Point mutants were generated by Site-Directed Mutagenesis kit (NEB) according to the manufacturer’s instructions. The plasmid was transformed into Escherichia coli strain BL21 (DE3). The cells were cultured in LB medium with 50 μg/mL kanamycin and induced by final concentration of 0.2 mmol/L isopropyl-β-d-thiogalactopyranoside (IPTG) at 18°C for 18 h. Cells were harvested and re-suspended in 20 mmol/L Tris pH 8.0, 500 mmol/L NaCl, 25 mmol/L imidazole and then broken by cell disruptor (JNBIO). The fusion protein was purified first with Ni HiTrap column (GE healthcare) and then removed the tag by ULP enzyme. The target protein was further purified with Superdex G75 Hiload 26/60 column (GE healthcare) and then concentrated to 20 mg/mL for structural and biochemical studies.
ITC experiments were carried out at 20°C on a MicroCal iTC200. Protein and peptide were kept in an identical buffer of 20 mmol/L Tris pH 8.0, 100 mmol/L NaCl. The sample cell was filled with a 0.1–0.2-mmol/L solution of protein, and the injection syringe with 1–2 mmol/L of the titrating ligand. […] Binding isotherms were analyzed by fitting data into the one-site model using the ITC data analysis module Origin 7.0 software.

MRG2^CDE75A = biological target: T7, MRG2^CDE75A (Arabidopsis thaliana, UniProt Q4V3E2, E75A); type: binding
T7 construct: the Arabidopsis MRG2 chromodomain (MRG2^CD)
Experimental: ITC experiments were carried out at 20°C on a MicroCal iTC200. Protein and peptide were kept in an identical buffer of 20 mmol/L Tris pH 8.0, 100 mmol/L NaCl. The sample cell was filled with a 0.1–0.2-mmol/L solution of protein, and the injection syringe with 1–2 mmol/L of the titrating ligand. Each titration consisted of 20 2-μL injections with 2 min interval. Binding isotherms were analyzed by fitting data into the one-site model using the ITC data analysis module Origin 7.0 software.

[4] = biological target: T1, MRG1 chromodomain (MRG1^CD, residues …); assay: ITC
[5] = biological target: T2, MRG2 chromodomain (MRG2^CD); assay: ITC
[6] = biological target: T3, MRG2 chromodomain mutant E75A …; assay: ITC
[7] = biological target: T4, MRG1 chromodomain mutant W58A …; assay: ITC
[8] = biological target: B2; assay: ITC; MicroCal iTC200, 20°C, 20 mmol/L Tris pH 8.0, 100 mmol/L NaCl; protein 0.1-0.2 mmol/L in the cell, peptide 1-2 mmol/L in the syringe; one-site model; conditions: both partners purified
[9] = biological target: T5, MRG1 chromodomain mutant W58A …; assay: as above; conditions: both partners purified
[10] = biological target: the molecule itself; assay: SEC-MALS; Wyatt 015S5 (150 Å) column, 0.5 mL/min, 10 mmol/L Tris 8.0, 100 mmol/L NaCl; self-association of the chromodomain
[11] = SEC-MALS analysis of oligomerization status in solution; type: physicochemical; conditions: for oligomerization in crystal and in solution (in words): SEC-MALS and crystal structure; for Observed molar mass by SEC-MALS: Wyatt 015S5 (150 Å) column, 0.5 mL/min, 10 mmol/L Tris 8.0, 100 mmol/L NaCl, multi-angle light scattering and differential refractive index
Experimental: The absolute molar mass of target protein was determined by size exclusion chromatography coupled with multi-angel light scattering. The experiments were performed by an Agilent system connected with a Wyatt DAWN HELEOS-II multi-angle light scattering instrument and a Wyatt OptilabrEX differential refractometer. A Wyatt 015S5 (150 Å) column was used with a 100 μL sample loop at a flow rate of 0.5 mL/min in the running buffer of 10 mmol/L Tris 8.0, 100 mmol/L NaCl. The molar mass was calculated by light scattering intensity and differential refractive index using Wyatt ASTRA 6 software (Wyatt, [1993]).

T6 sequence (Q94C32 28-110 W58A): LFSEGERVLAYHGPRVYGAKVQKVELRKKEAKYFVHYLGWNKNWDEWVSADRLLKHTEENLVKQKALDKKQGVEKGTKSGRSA
T7 sequence (Q4V3E2 52-101 E75A): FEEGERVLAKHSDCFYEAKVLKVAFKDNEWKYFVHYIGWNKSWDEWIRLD

MRG701 chromodomain (MRG701^CD, residues 27-96) (domain or fragment)
stoichiometry N [1]: 2

histone H3K36me3 peptide (residues 31-41) (from UniProt P68431 32-42)
Kd [2]: 510 µM | Kd [3]: 260 µM

C[C@H](N)C(=O)N[C@@H](CCCNC(=N)N)C(=O)N[C@H](C(=O)N[C@@H](CCCC[N+](C)(C)C)C(=O)N[C@@H](CCC(N)=O)C(=O)N[C@H](C(=O)N[C@@H](C)C(=O)N[C@@H](CCCNC(=N)N)C(=O)N[C@@H](CCCCN)C(=O)O)[C@@H](C)O)[C@@H](C)O [H3K4me3]
difference of Kd between wild-type and mutant proteins (in words) (MRG1^CDW58A): only mild differences | difference of Kd between wild-type and mutant proteins (in words) (MRG2^CDE75A): only mild differences

B1
Kd [4]: 650 µM | Kd [5]: 520 µM | Kd [6]: 450 µM | Kd [7]: 910 µM | Kd [2]: 330 µM | Kd [3]: 250 µM | binding result [8]: binds | binding result [9]: binds

B2
stoichiometry N [10]: 2

B3
oligomerization in crystal and in solution (in words) [11]: form dimers both in crystal and in solution | Observed molar mass by SEC-MALS [11]: 20.7 kDa and 20.74 ± 3.05 kDa | stoichiometry N [10]: 2

B4
oligomerization in crystal and in solution (in words) [11]: form dimers both in crystal and in solution | Observed molar mass by SEC-MALS [11]: 20.7 kDa and 20.67 ± 2.99 kDa

B5
Observed molar mass by SEC-MALS [11]: 13.4 kDa and 13.36 ± 1.40 kDa

B6
Observed molar mass by SEC-MALS [11]: 12.5 kDa and 12.47 ± 0.92 kDa
